Molecular target: T1, integrin αvβ3 on β3-CHO cells (UniProt A0A9J7JSN3+P05106)
T1 construct: expressed in transfected cells; host or cells: CHO
T1 sequence (P05106 27-788): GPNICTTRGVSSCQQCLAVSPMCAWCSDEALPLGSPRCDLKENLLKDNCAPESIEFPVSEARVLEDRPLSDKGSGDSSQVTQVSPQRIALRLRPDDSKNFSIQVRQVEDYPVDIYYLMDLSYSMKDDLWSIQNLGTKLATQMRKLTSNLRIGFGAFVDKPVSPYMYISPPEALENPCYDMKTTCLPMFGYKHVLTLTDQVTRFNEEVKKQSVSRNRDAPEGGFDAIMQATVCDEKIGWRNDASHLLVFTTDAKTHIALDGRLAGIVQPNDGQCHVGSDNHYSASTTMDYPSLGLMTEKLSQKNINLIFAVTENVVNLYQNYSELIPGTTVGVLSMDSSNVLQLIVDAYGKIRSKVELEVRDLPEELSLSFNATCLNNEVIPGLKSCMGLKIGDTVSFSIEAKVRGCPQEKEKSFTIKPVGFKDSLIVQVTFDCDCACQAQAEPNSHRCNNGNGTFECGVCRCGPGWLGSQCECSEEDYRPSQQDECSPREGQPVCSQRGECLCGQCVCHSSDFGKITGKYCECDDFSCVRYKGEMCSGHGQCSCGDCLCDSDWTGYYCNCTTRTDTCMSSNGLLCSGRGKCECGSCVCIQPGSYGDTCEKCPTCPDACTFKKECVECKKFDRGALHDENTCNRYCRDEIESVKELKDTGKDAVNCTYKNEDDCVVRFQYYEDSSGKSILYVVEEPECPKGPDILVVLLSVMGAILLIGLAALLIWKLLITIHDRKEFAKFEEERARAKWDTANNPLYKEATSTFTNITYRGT
T1 sequence (A0A9J7JSN3 31-1043): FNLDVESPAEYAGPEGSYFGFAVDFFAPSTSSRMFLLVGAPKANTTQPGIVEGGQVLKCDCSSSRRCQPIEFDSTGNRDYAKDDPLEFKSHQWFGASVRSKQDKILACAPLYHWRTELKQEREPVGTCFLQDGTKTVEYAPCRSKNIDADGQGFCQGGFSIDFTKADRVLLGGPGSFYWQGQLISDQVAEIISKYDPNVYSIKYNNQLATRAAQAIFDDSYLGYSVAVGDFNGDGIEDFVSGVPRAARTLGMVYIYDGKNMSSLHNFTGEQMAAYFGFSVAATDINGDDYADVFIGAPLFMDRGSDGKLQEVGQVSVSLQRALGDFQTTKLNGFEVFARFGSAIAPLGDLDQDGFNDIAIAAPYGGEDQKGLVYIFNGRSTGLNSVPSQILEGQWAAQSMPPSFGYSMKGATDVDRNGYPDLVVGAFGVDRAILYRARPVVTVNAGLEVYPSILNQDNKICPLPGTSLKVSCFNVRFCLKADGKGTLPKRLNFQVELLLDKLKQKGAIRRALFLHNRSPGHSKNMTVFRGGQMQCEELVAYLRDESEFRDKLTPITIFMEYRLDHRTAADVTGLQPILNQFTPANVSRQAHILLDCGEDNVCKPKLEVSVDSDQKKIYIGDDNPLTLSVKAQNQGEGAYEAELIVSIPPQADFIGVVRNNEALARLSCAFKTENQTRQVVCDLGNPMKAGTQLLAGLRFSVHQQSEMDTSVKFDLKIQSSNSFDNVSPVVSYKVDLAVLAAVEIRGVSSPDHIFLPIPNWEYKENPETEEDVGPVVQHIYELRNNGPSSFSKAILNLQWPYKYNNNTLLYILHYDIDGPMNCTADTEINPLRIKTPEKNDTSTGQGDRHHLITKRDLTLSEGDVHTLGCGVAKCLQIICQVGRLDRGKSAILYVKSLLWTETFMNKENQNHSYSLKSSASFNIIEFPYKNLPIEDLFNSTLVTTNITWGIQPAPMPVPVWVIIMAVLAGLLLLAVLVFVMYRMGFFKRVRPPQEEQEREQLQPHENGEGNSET
Test: Adhesion of cells expressing recombinant αvβ3 (β3-CHO, β3-745) to immobilized sPLA2-IIA
Format: cell-based, human
Settings: compared with mock-transfected cells
From the text: FIG. 1. sPLA2-IIA binding to integrin αvβ3. a) Cell adhesion to sPLA2-IIA in an αvβ3- and proteoglycans-dependent manner. Wells of a 96-well microtiter plate were coated with sPLA2-IIA at indicated coating concentrations. Remaining protein-binding sites were blocked with BSA. CHO cells expressing recombinant αvβ3 (β3-CHO), mock-transfected CHO cells, proteoglycans-deficient CHO cell variant (pgs745), expressing recombinant αvβ3 (β3-745), and mock-transfected pgs745 cells (10^5 cells per well in 100 μl Tyrodes-HEPES with 1 mM MgCl2) were added to the wells. After incubating for 1 h at 37° C., unbound cells were removed by gentle rinsing and bound cells were quantified using endogenous phosphatase activity (Prater, C. A. et al., J. Cell Biol., 112:1031-1040 (1991)). Data is shown as means+/−SEM of triplicate experiments. b) Effect of anti-(33 mAb 7E3 on adhesion of β3-CHO cells to immobilized sPLA2-IIA. […] Bound FITC (FL1) and PE (FL2) were quantified in flow cytometry. […] Bound αvβ3 was detected using peroxidase-conjugated anti-6His antibody. Bound peroxidase activity was measured. […]

B1: wt sPLA2-IIA: Secretory phospholipase A2 group IIA, wild type, recombinant from bacteria BL21, refolded (protein)
chain: NLVNFHRMIKLTTGKEAALSYGFYGCHCGVGGRGSPKDATDRCCVTHDCCYKRLEKRGCGTKFLSYKFSNSGSRITCAKQDSCRSQLCECDKAAATCFARNKTTYNKKYQYYSNKHCRGSTPRC
modifications: left off: small tags and cut ends
For B1, the “adhesion of β3-CHO and β3-745 cells to immobilized sPLA2-IIA” value was “much higher level than mock-transfected CHO or 745 cells”.
